# The supplement of paper PMC5998384
# What was measured:
# HeLa Kyoto [1] = assay: solubility in G1/S (NP-40 vs SDS abundance) (log2 ratio); higher = more soluble; settings: cell cycle stage: G1/S
# HeLa Kyoto [2] = assay: melting temperature (median over replicates), in situ; higher = more thermally stable
# HeLa Kyoto [3] = assay: solubility change mitosis vs G1/S (difference of NP-40 vs SDS log2 ratios) (log2 ratio difference); higher = more soluble in mitosis
# HeLa Kyoto [4] = assay: thermal stability score vs G1/S (z-score of summed log2 fold changes over temperatures); higher = more thermally stable than in G1/S
# [5] = cell cycle stage: early G1 (4.5 h after nocodazole release)
# 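Throughout, for melting temperature (median over replicates), in situ: HeLa Kyoto cells synchronized by double thymidine or nocodazole block, proteins quantified by TMT10plex mass spectrometry, three independent biological replicates.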
# 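Throughout, for solubility change mitosis vs G1/S (difference of NP-40 vs SDS log2 ratios): synchronized HeLa Kyoto cells (double thymidine block for G1/S, nocodazole release for mitosis), protein amounts in NP-40 versus SDS lysates quantified by mass spectrometry, three biological replicates.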
# 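Throughout, for solubility in G1/S (NP-40 vs SDS abundance): HeLa Kyoto cells arrested at G1/S by double thymidine block, proteins quantified by TMT10plex mass spectrometry in mild NP-40 versus SDS extracts, three biological replicates.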
# 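Throughout, for thermal stability score vs G1/S (z-score of summed log2 fold changes over temperatures): synchronized HeLa Kyoto cells, proteins quantified by TMT10plex mass spectrometry, three biological replicates, mitosis taken 0.5 h after nocodazole release, G1/S directly after double thymidine block.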
Sequence,solubility in G1/S (log2) (HeLa Kyoto [1]),melting temperature (HeLa Kyoto [2]; cell cycle stage: G1/S),melting temperature (HeLa Kyoto [2]; cell cycle stage: mitosis),solubility change mitosis (log2) (HeLa Kyoto [3]),thermal stability score (HeLa Kyoto [4]; [5]),thermal stability score (HeLa Kyoto [4]; cell cycle stage: mitosis)
MLSSTAMYSAPGRDLGMEPHRAAGPLQLRFSPYVFNGGTILAIAGEDFAIVASDTRLSEGFSIHTRDSPKCYKLTDKTVIGCSGFHGDCLTLTKIIEARLKMYKHSNNKAMTTGAIAAMLSTILYSRRFFPYYVYNIIGGLDEEGKGAVYSFDPVGSYQRDSFKAGGSASAMLQPLLDNQVGFKNMQNVEHVPLSLDRAMRLVKDVFISAAERDVYTGDALRICIVTKEGIREETVSLRKD [PSMB1],-0.00543,57 °C,60.1 °C,-0.098,-1.78,-1.88
MLVLRSALTRALASRTLAPQMCSSFATGPRQYDGIFYEFRSYYLKPSKMNEFLENFEKNAHLRTAHSELVGYWSVEFGGRMNTVFHIWKYDNFAHRTEVRKALAKDKEWQEQFLIPNLALIDKQESEITYLVPWCKLEKPPKEGVYELATFQMKPGGPALWGDAFKRAVHAHVNLGYTKLVGVFHTEYGALNRVHVLWWNESADSRAAGRHKSHEDPRVVAAVRESVNYLVSQQNMLLIPTSFSPLK [NIPSNAP3A],-0.107,56.2 °C,57.7 °C,-0.224,-1.76,-2.47
MLVSGRRRLLTVLLQAQKWPFQPSRDMRLVQFRAPHLVGPHLGLETGNGGGVINLNAFDPTLPKTMTQFLEQGEATLSVARRALAAQLPVLPRSEVTFLAPVTRPDKVVCVGMNYVDHCKEQNVPVPKEPIIFSKFASSIVGPYDEVVLPPQSQEVDWEVELAVVIGKKGKHIKATDAMAHVAGFTVAHDVSARDWQMRRNGKQWLLGKTFDTFCPLGPALVTKDSVADPHNLKICCRVNGEVVQSGNTNQMVFKTEDLIAWVSQFVTFYPGDVILTGTPPGVGVFRKPPVFLKKGDEVQCEIEELGVIINKVV [FAHD2A],0.253,55.7 °C,56.4 °C,-0.192,-1.17,-2.54
MLVVEVANGRSLVWGAEAVQALRERLGVGGRTVGALPRGPRQNSRLGLPLLLMPEEARLLAEIGAVTLVSAPRPDSRHHSLALTSFKRQQEESFQEQSALAAEARETRRQELLEKITEGQAAKKQKLEQASGASSSQEAGSSQAAKEDETSDGQASGEQEEAGPSSSQAGPSNGVAPLPRSALLVQLATARPRPVKARPLDWRVQSKDWPHAGRPAHELRYSIYRDLWERGFFLSAAGKFGGDFLVYPGDPLRFHAHYIAQCWAPEDTIPLQDLVAAGRLGTSVRKTLLLCSPQPDGKVVYTSLQWASLQ [TSEN34],0.191,49.3 °C,49.8 °C,-0.159,1.68,2.17
MLWFQGAIPAAIATAKRSGAVFVVFVAGDDEQSTQMAASWEDDKVTEASSNSFVAIKIDTKSEACLQFSQIYPVVCVPSSFFIGDSGIPLEVIAGSVSADELVTRIHKVRQMHLLKSETSVANGSQSESSVSTPSASFEPNNTCENSQSRNAELCEIPPTSDTKSDTATGGESAGHATSSQEPSGCSDQRPAEDLNIRVERLTKKLEERREEKRKEEEQREIKKEIERRKTGKEMLDYKRKQEEELTKRMLEERNREKAEDRAARERIKQQIALDRAERAARFAKTKEEVEAAKAAALLAKQAEMEVKRESYARERSTVARIQFRLPDGSSFTNQFPSDAPLEEARQFAAQTVGNTYGNFSLATMFPRREFTKEDYKKKLLDLELAPSASVVLLPAGRPTASIVHSSSGDIWTLLGTVLYPFLAIWRLISNFLFSNPPPTQTSVRVTSSEPPNPASSSKSEKREPVRKRVLEKRGDDFKKEGKIYRLRTQDDGEDENNTWNGNSTQQM [UBXN4],-0.0609,51.8 °C,52.1 °C,-0.108,-0.0363,0.462
